The numbers were not newly measured in article PMC11945212, which cites them from elsewhere.

This data set addresses Adducin (Homo sapiens) (UniProt P35611).
UniProt P35611, sequence (P35611 whole entry, chain 1 of 2): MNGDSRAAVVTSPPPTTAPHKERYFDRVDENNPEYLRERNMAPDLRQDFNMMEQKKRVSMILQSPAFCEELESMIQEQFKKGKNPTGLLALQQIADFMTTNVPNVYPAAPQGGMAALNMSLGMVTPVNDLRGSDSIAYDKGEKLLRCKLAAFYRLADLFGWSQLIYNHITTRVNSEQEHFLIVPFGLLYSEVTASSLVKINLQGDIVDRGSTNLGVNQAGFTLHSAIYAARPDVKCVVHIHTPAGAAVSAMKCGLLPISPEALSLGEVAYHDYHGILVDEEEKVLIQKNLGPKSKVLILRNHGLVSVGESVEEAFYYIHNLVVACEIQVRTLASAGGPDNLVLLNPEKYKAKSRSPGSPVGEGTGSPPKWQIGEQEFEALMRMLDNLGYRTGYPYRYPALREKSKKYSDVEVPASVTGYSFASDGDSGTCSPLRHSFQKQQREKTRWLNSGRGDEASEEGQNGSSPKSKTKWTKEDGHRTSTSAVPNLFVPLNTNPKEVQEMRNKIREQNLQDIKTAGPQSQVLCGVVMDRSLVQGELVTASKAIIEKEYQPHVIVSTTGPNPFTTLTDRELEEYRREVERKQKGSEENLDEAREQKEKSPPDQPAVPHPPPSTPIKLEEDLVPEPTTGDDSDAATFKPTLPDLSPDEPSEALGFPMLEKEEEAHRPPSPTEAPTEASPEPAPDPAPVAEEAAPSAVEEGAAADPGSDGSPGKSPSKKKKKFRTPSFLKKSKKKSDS
UniProt P35611, sequence (P35612 whole entry, chain 2 of 2, further chain): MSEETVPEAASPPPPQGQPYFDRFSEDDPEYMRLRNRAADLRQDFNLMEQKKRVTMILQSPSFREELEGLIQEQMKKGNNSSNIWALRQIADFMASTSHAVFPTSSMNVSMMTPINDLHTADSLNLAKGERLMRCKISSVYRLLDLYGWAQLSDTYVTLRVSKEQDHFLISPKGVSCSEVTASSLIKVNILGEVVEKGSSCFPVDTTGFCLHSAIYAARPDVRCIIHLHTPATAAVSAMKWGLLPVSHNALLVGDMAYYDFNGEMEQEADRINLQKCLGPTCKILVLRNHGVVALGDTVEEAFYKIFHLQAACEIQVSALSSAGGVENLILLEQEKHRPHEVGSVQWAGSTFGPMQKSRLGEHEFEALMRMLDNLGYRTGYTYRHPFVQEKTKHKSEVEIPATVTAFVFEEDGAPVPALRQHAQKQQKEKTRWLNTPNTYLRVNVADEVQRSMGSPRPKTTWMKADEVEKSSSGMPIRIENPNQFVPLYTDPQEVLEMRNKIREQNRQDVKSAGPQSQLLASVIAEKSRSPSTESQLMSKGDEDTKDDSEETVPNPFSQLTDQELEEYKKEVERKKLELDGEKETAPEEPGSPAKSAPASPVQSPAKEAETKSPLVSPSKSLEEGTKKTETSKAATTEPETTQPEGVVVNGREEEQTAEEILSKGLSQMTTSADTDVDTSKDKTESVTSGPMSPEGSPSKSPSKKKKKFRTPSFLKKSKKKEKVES

For orientation: Kd means a measure of binding affinity in units of concentration. Regarding Band 3 (from UniProt P02730), the Kd is 100 nM.
